Test results published in publication PMC5932101 (EJNMMI Radiopharmacy and Chemistry, 2018).

Columns and labels:
[1] = tested on: mice bearing αvß3-positive U-87 MG tumors; conditions: mouse, in vivo; cited from earlier work
Description: Table 1 Ex vivo biodistribution of [^68Ga]3 in mice bearing αvß3-positive U-87 MG tumors at 1 h p.i. along with blocking studies in comparison to [^68Ga]Ga-NODAGA-c(RGDfK) and [^68Ga]Ga-DOTA-c(RGDfK) (data taken from ref. Dumont et al. [2011]). Data are expressed as %IA g^− 1 and represent mean ± SD (n = 5) | column: [^68Ga]Ga-NODAGA-c(RGDfK) / 1 h; [^68Ga]Ga-DOTA-c(RGDfK) / 1 h || Biodistribution data for [^68Ga]3 are presented in Table 1. For comparison, equivalent data taken from the literature are also given for compounds [^68Ga]Ga-NODAGA-c(RGDfK) and [^68Ga]Ga-DOTA-c(RGDfK) (Dumont et al. [2011]). The primary difference between these three compounds is the change in chelator.

[2] = cited from earlier work
Text: The radiolabelled conjugate [^68Ga]3 is highly hydrophilic with a log Doct/PBS value of − 3.89 ± 0.02.

[3] = tested on: U-87 MG tumor bearing mice; conditions: mouse, in vivo; cited from earlier work
Description: In addition to the ex vivo biodistribution studies, the distribution profile of [^68Ga]3 was also assessed 1 h after administration by small-animal PET imaging. Corresponding transverse and coronal maximum intensity projections of [^68Ga]3 in αvß3 xenograft bearing mice along with blocking studies are given Fig. 2. The results of the biodistribution study were confirmed by PET imaging. The αvß3 positive U-87 MG tumors as well as the liver and the kidneys were clearly visible on the PET images. The tumor uptake of [^68Ga]3 was determined to 2.48 ± 0.14 %IA g^− 1. The differences in blood and ti ...

in vivo [4] = experiment: in vivo; design: species or system mice; conditions: female, athymic Balb/c nude, mouse, iv, total radioactivity
Description: (§1) All animal experiments complied with the current laws of the Federal Republic of Germany and were conducted according to German Animal welfare guidelines. Normal female athymic Balb/c nude mice (17–20 g, 4–6 weeks old) were obtained from Janvier SAS (St. Berthevin Cedex, France). Mice were provided with food and water ad libitum. U-87 MG tumors were inoculated on the right shoulder by sub-cutaneous injection of 5×10^6 cells in a 100 μL cell suspension of a 1:1 v/v mixture of media with reconstituted basement membrane (GFR BD Matrigel™, Corning BV, Amsterdam, Holland).
For PET imaging studies, mice (n = 3) were injected with 100 μL sterile filtered phosphate buffered saline formulations pH 7.4 of [^68Ga]3 (7–11 MBq) by intravenous tail-vein injection and anesthetized with isoflurane (2–4% in air) 5–10 min prior image acquisition. PET imaging was performed on a Focus 120 microPET scanner at 1 h after administration. Data were acquired 1 h post administration in list mode. Reconstruction was performed using unweighted OSEM2D. Image analysis was performed using AMIDE. Image counts per second per voxel (cps/voxel) were calibrated to activity concentrations (Bq mL^− 1) by measuring a 3.5 cm cylinder phantom filled with a known concentration of radioactivity.

in vivo [5] = experiment: in vivo; design: species or system mice; conditions: female, athymic Balb/c nude, mouse, iv, total radioactivity; remark: listed apart in the source
Description: as §1
For each compound, a total of five animals were injected with [^68Ga]3 (7–11 MBq) in 100 μL sterile filtered phosphate buffered saline via a tail vein. At 1 h p.i., animals were sacrificed by isoflurane anesthesia. Organs of interest were dissected, weighed and assayed for radioactivity in a gamma counter. The percent injected activity per gram (%IA g^− 1) for each tissue was calculated by comparison of the tissue counts to a standard sample prepared from the injectate.

Row | Molecule | Tumor-to-blood ratio [1] | Tumor-to-kidney ratio [1] | Tumor-to-liver ratio [1] | Tumor-to-muscle ratio [1] | log D [2] | Tumor-to-background ratio (PET) [3] | tissue to tissue ratio at 1 h (in vivo [4]) | tissue uptake at 1 h (in vivo [5]; Accumulation in all other organs (other than tumor, kidney, liver)) [%ID/g] | tissue to tissue ratio at 1 h (in vivo [5]; Tumor-to-blood ratio) | tissue to tissue ratio at 1 h (in vivo [5]; Tumor-to-kidney ratio) | tissue to tissue ratio at 1 h (in vivo [5]; Tumor-to-liver ratio) | tissue to tissue ratio at 1 h (in vivo [5]; Tumor-to-muscle ratio)
1 | [^68Ga]Ga-NODAGA-c(RGDfK) (head to tail) | 27.67 ± 7.01 | 2.64 ± 0.31 | 2.75 ± 0.31 | 12.80 ± 5.25 | − 3.27 ± 0.01 | 11.97 | – | – | – | – | – | –
2 | Cn1ccnc1CN1CCN(CC(=O)NCCCC[C@@H]2NC(=O)[C@@H](Cc3ccccc3)NC(=O)[C@H](CC(=O)O)NC(=O)CNC(=O)[C@H](CCCNC(=N)N)NC2=O)CCN(Cc2nccn2C)CC1 [[^68Ga]3, [^68Ga]Ga-NODIA-Me-c(RGDfK), metal not drawn] | – | – | – | – | – | – | 6.76 | < 1 | 3.91 ± 0.43 | 1.27 ± 0.04 | 2.08 ± 0.18 | 11.7 ± 0.29
3 | [^68Ga]Ga-DOTA-c(RGDfK) (head to tail) | 9.24 ± 1.12 | 1.57 ± 0.14 | 2.25 ± 0.37 | 12.37 ± 1.81 | − 2.86 ± 0.01 | 3.28 | – | – | – | – | – | –
